Consider 1 molecule from US20210063414A1, “METHODS FOR PREVENTING AND/OR TREATING BONE LOSS CONDITIONS BY MODULATING IRISIN” (Dana-Farber Cancer Institute, Inc., priority 2018, published 2021).

In the assay the target is T1, MLO-Y4 cell surface proteins (Mus musculus, UniProt P16460).
T1 construct: endogenous in cells; host or cells: MLO-Y4
T1 sequence (P16460 1-412): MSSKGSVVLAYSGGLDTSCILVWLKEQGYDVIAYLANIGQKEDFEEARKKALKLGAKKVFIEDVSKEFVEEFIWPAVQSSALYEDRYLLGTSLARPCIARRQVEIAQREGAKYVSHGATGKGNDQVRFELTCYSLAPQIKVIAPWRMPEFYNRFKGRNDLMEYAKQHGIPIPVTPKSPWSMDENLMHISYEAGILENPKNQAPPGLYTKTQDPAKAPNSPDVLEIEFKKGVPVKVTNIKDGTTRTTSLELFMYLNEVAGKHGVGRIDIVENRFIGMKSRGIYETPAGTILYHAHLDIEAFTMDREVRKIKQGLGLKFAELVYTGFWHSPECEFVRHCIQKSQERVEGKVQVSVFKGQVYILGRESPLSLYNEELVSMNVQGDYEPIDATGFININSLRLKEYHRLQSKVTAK
Briefly: Crosslinking/co-immunoprecipitation/mass spectrometry (TMT quantitative proteomics) to identify irisin receptors. In kind it is binding. To be noted: co-precipitated protein Ass1 (ASSY_MOUSE). Put shortly:
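Relative protein abundance came from 6-plex TMT MS3 quantitation on an Orbitrap Fusion Lumos, after in-gel trypsin digestion of Coomassie-stained SDS-PAGE lanes. Input was a Ni-NTA pulldown (250 mM imidazole elution) of lysates from murine MLO-Y4 cells. These cells were treated on ice with His-tagged irisin or adipsin (10 nM, 20 min) in serum-free medium, then crosslinked with 1.5 mM DTSSP for 30 min.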

B1: irisin: secreted cleaved form of FNDC5; recombinant human/mouse irisin with C-terminal his tag produced in HEK293 cells (protein)
chain: DSPSAPVNVTVRHLKANSAVVSWDVLEDEVVIGFAISQQKKDVRMLRFIQEVNTTTRSCALWDLEEDTEYIVHVQAISIQGQSPASEPVLFKTPREAEKMASKNKDEVTMKE
modifications: left off: small tags and cut ends
notes: secreted cleaved form of FNDC5; recombinant human/mouse irisin with C-terminal his tag produced in HEK293 cells
On to B1, for which the TMT signal-to-noise ratio is listed as 3.2933 and the “irisin/adipsin TMT signal-to-noise ratio” value is given as 0.012.
